From patent US8697349

Experiments:
[1] = molecular target: Cy5-labeled Goat anti mouse IgG (AP127S, available from CHEMICON International Inc.) (goat); experiment: Rabbit anti goat IgG fixed on AZO film via synthetic peptides, probed with Cy5-labeled goat IgG, array scanner; reference: antibody directly light-fixed
[2] = molecular target: Cy5-labeled Goat anti mouse IgG (AP127S, available from CHEMICON International Inc.) (goat); experiment: Cy5 fluorescence of antibody at peptide spot on AZO film after 17 h light irradiation, array scanner; reference: water instead of peptide

Q: How did the immobilized antibody activity, fold over Comparative Example 2 [1] turn out when “anti goat IgG rabbit-IgG (A50-100A, available from Bethyl Laboratories, Inc.) (antibody)” was run?
A: 3 to 30 fold

Q: With FAAAIAAIAAAI [synthetic peptide FAA …] as the molecule, how does the fixability, fold over Comparative Example 1 [2] read?
A: > 10 fold

Q: For IGSAIAAIAAAI [synthetic peptide IGS …], which fixability, fold over Comparative Example 1 [2] is on record?
A: > 10 fold

Q: Which fixability, fold over Comparative Example 1 [2] does the source give for IATAIAAIAAAI [synthetic peptide IAT …] here?
A: > 10 fold

Q: For INSAIAAIAAAI [synthetic peptide INS …], which fixability, fold over Comparative Example 1 [2] is on record?
A: > 10 fold

Q: For AAAAIAAIAAAI [synthetic peptide AAA …], which fixability, fold over Comparative Example 1 [2] is on record?
A: > 10 fold

Q: Which fixability, fold over Comparative Example 1 [2] does the source give for AATAIAAIAAAI [synthetic peptide AAT …] here?
A: > 10 fold

Q: How did the fixability, fold over Comparative Example 1 [2] turn out when ISTAIAAIAAAI [synthetic peptide IST …] was run?
A: > 10 fold

Q: Which fixability, fold over Comparative Example 1 [2] does the source give for ITSAIAAIAAAI [synthetic peptide ITS …] here?
A: > 10 fold

Q: Which fixability, fold over Comparative Example 1 [2] does the source give for VATAIAAIAAAI [synthetic peptide VAT …] here?
A: > 10 fold

Q: With PAAAIAAIAAAI [synthetic peptide PAA …] as the molecule, how does the fixability, fold over Comparative Example 1 [2] read?
A: > 10 fold

Q: With IVSAIAAIAAAI [synthetic peptide IVS …] as the molecule, how does the fixability, fold over Comparative Example 1 [2] read?
A: > 10 fold

Q: Which fixability, fold over Comparative Example 1 [2] does the source give for IHTAIAAIAAAI [synthetic peptide IHT …] here?
A: > 10 fold

Q: With LATAIAAIAAAI [synthetic peptide LAT …] as the molecule, how does the fixability, fold over Comparative Example 1 [2] read?
A: > 10 fold

Q: Which fixability, fold over Comparative Example 1 [2] does the source give for FATAIAAIAAAI [synthetic peptide FAT …] here?
A: > 10 fold

Q: For ITTAIAAIAAAI [synthetic peptide ITT …], which fixability, fold over Comparative Example 1 [2] is on record?
A: > 10 fold

Q: With IMTAIAAIAAAI [synthetic peptide IMT …] as the molecule, how does the fixability, fold over Comparative Example 1 [2] read?
A: > 10 fold

Q: How did the fixability, fold over Comparative Example 1 [2] turn out when IAYAIAAIAAAI [synthetic peptide IAY …] was run?
A: > 10 fold

Q: Which fixability, fold over Comparative Example 1 [2] does the source give for WATAIAAIAAAI [synthetic peptide WAT …] here?
A: > 10 fold

Q: For IAIAIAAIAAAI [synthetic peptide IAI …], which fixability, fold over Comparative Example 1 [2] is on record?
A: > 10 fold

Q: For ISSAIAAIAAAI [synthetic peptide ISS …], which fixability, fold over Comparative Example 1 [2] is on record?
A: > 10 fold

Q: How did the fixability, fold over Comparative Example 1 [2] turn out when IAAAIAAIAAAI [synthetic peptide IAA …] was run?
A: > 10 fold

Q: With ATAAIAAIAAAI [synthetic peptide ATA …] as the molecule, how does the fixability, fold over Comparative Example 1 [2] read?
A: > 10 fold

Q: With PATAIAAIAAAI [synthetic peptide PAT …] as the molecule, how does the fixability, fold over Comparative Example 1 [2] read?
A: > 10 fold

Q: Which fixability, fold over Comparative Example 1 [2] does the source give for IPTAIAAIAAAI [synthetic peptide IPT …] here?
A: > 10 fold

Q: How did the fixability, fold over Comparative Example 1 [2] turn out when IITAIAAIAAAI [synthetic peptide IIT …] was run?
A: > 10 fold

Q: How did the fixability, fold over Comparative Example 1 [2] turn out when IQTAIAAIAAAI [synthetic peptide IQT …] was run?
A: > 10 fold

Q: For LAAAIAAIAAAI [synthetic peptide LAA …], which fixability, fold over Comparative Example 1 [2] is on record?
A: > 10 fold

Q: For IQSAIAAIAAAI [synthetic peptide IQS …], which fixability, fold over Comparative Example 1 [2] is on record?
A: > 10 fold

Q: With IASAIAAIAAAI [synthetic peptide IAS …] as the molecule, how does the fixability, fold over Comparative Example 1 [2] read?
A: > 10 fold

Q: For IAEAIAAIAAAI [synthetic peptide IAE …], which fixability, fold over Comparative Example 1 [2] is on record?
A: > 10 fold

Q: How did the fixability, fold over Comparative Example 1 [2] turn out when QAAAIAAIAAAI [synthetic peptide QAA …] was run?
A: > 10 fold

Q: For VAAAIAAIAAAI [synthetic peptide VAA …], which fixability, fold over Comparative Example 1 [2] is on record?
A: > 10 fold
